From patent publication US20040242853A1
Square brackets hold non-standard residues; d marks the D form. Ends that are not written are not given here. Ahx = NCCCCCC(=O)O

Assays:
[1] = test system: GLP-1 6-aminohexanoic acid8
[2] = test system: GLP-1 (7-36) amide
[3] = target: human GLP-1 receptor (CHO cells stably transfected with the human GLP-1 receptor) (human) (UniProt P43220); assay: displacement of 125I-GLP-1 from intact CHO/GLP-1R cells (Example 9)
[4] = target: T1, human GLP-1 receptor (CHO cells stably transfected with the human GLP-1 receptor) (human), P43220; assay: as above
T1 chain: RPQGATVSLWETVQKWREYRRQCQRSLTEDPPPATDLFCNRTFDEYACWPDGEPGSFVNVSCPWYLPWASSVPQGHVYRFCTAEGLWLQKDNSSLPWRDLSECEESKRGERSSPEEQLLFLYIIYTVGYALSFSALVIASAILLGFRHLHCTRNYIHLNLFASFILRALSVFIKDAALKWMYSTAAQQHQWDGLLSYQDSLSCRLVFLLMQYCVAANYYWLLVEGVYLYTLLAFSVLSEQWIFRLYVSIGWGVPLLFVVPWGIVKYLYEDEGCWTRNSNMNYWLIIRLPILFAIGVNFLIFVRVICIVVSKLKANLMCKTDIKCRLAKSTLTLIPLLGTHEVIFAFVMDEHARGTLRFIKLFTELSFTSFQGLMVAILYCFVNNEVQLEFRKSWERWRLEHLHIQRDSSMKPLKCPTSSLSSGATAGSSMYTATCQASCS

[5] = target: T1, human GLP-1 receptor (CHO cells stably …); assay: cell-based or functional assay

Exendin (1-35) (peptide; other documents disagree on this pair), sequence (C6EVG1 48-82): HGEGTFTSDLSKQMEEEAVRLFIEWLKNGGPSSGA

“recombinant DPPIV (dipeptidyl peptidase IV)” was tested, and the “N-terminal truncated product measured by MALDI-TOF” value [1] was “In contrast GLP-1 Aha^8 (2 µM) appeared resistant to either treatment” and the “N-terminal truncated product measured by MALDI-TOF” value [2] was “caused a considerable increase in the amount of N-terminal truncated product (Mr=3089 gmol-1) as measured by MALDI”.

Molecule “Exendin (1-35) (peptide; other documents disagree on this pair)” has an IC50 [3] of 7 nM.

In the case of HGEGTFTSDVSSYLEGQAAKEFIAWLVKGRPSSGAPPPS (modifications not checked) [GLP-1 Gly8(7-36) Exendin(31-39)], the IC50 [4] is reported as 74 nM.

With H[Ahx]AEGTFTSDVSSYLEGQAAKEFIAWLVKGR (ends and bridges not checked) [GLP-1 6-aminohexanoic acid8] the intracellular cAMP production in CHO/GLP-1R cells (fold above basal) [5] was 4.
